Results: patent publication US20120065133A1 (University of Pennsylvania, published 2012)
Ends that are not written are not given here.

Biological target: the molecule itself
Assay: analytical ultracentrifugation; self-association of the peptide

B1: Construct 12 (AP6) (peptide)
peptide: CGGGEIWKQHEEALKKLFAFHFILPFIIMAIAMVHLLFLFGEGL
modifications: also: acetylated (position not given here)
notes: Designed amphiphilic helical peptide made by solid-phase synthesis; Heme cofactors may have been present; also called amphiphilic construct AP6
  binding result: binds
